Assay results as given in the supplement of paper PMC10724198.
± gives the standard deviation of the averaged measurements.

Test system: Saccharomyces cerevisiae
Assay: protein stability index of tFT-peptide fusion (C-terminal peptide) (PSI (0-1 scale)); higher = more stable (slower turnover)
Details: genetic background: wild type; temperature: 30 C
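Note: PSI is a weighted mean of sequencing reads over stability bins, variants kept only with over 10 reads, mCherry proximal and sfGFP distal, peptide attached via GGGS linker.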

| Sequence | protein stability index |
| --- | --- |
| PKHQPSLLPNHH | 0.615 ± 0.026 |
| LEHPAHPTKLQL | 0.7067 ± 0.0033 |
| RSSRRLAGPVSS | 0.639 ± 0.06 |
| SCRVSFLFFLFE | 0.562 ± 0.016 |
| VLSGFICTILIP | 0.596 ± 0.038 |
| NVRVLKCLWGVG | 0.619 ± 0.029 |
| VRPPPPPRSSPL | 0.742 ± 0.055 |
| SRGNYKLIWSDT | 0.731 ± 0.093 |
| IWGLDGKSISID | 0.751 ± 0.061 |
| RACKKGTKRIRI | 0.613 ± 0.06 |
| GWGGGGGAWKGV | 0.736 ± 0.072 |
| PPRPTPYPPLPP | 0.674 ± 0.062 |
| RVEGKNNKEVCI | 0.742 ± 0.079 |
| PPPPLPPAPPLP | 0.6607 ± 8.2e-05 |
| ENHPATICGFYR | 0.767 ± 0.087 |
| STLPPSRLSSPL | 0.638 ± 0.017 |
| FSLFSSPPSLFC | 0.672 ± 0.03 |
| ERANMSRGNQTE | 0.687 ± 0.025 |
| AIPLYAPSQPCE | 0.696 ± 0.027 |
| FFPPAPLTSLLP | 0.697 ± 0.057 |
| VAKFYQVLMSEG | 0.684 ± 0.014 |
| CFFNAASHSTYE | 0.7032 ± 0.0049 |
| YPHQRGRPDAHH | 0.71 ± 0.021 |
| PPPAPPLTFGHV | 0.6852 ± 0.0031 |
| LGIGTWGHRGDD | 0.712 ± 0.015 |
| GIGSSKESGGLW | 0.737 ± 0.05 |

| Sequence | protein stability index |
| --- | --- |
| PRPTPPHSPLLP | 0.586 ± 0.02 |
| WCAYRPGSTGHR | 0.731 ± 0.058 |
| DSSDIELSTRTL | 0.651 ± 0.027 |
| VLPPTPLTPVLP | 0.676 ± 0.055 |
| AYRLAFYGCVMR | 0.514 ± 0.02 |
| FLGFPVVGVFGS | 0.735 ± 0.031 |
| SGFFGFLLGAYG | 0.5876 ± 0.0031 |
| MENAMHQLNRNT | 0.679 ± 0.022 |
| VHGAQICCIPWY | 0.699 ± 0.063 |
| GNNREGYRSAQA | 0.599 ± 0.054 |
| PSPPTYPSFPSR | 0.724 ± 0.041 |
| FFIGFGGVAGGG | 0.695 ± 0.01 |
| INGYRYHTVNIK | 0.688 ± 0.03 |
| PHHPPAHPPTPP | 0.683 ± 0.023 |
| YVELTGRITTKL | 0.716 ± 0.038 |
| VLAGVVGQARWW | 0.731 ± 0.015 |
| GVWLRTARRISK | 0.688 ± 0.037 |
| SFLVSALASSLA | 0.652 ± 0.019 |
| GSLPPCPSHAPF | 0.698 ± 0.061 |
| PVHHLSLPSPLL | 0.732 ± 0.037 |
| ARPPPPPRSSPL | 0.747 ± 0.072 |
| PSALPLVPSPLP | 0.706 ± 0.033 |
| KKKEKDKKTNKP | 0.684 ± 0.057 |
| VSPFSILLPVPL | 0.608 ± 0.017 |
| LPPPPPPPPLLP | 0.696 ± 0.0022 |
| DQRLKKKTVQMK | 0.778 ± 0.076 |

| Sequence | protein stability index |
| --- | --- |
| ANQGRRPWRGMC | 0.585 ± 0.14 |
| VFCSLAWFGLLL | 0.598 ± 0.054 |
| GYMFLSFLKLCW | 0.599 ± 0.021 |
| IVCGMGDKGMHE | 0.698 ± 0.014 |
| HQLHLMRDSIRN | 0.716 ± 0.021 |
| PPLPPSPPAPPP | 0.629 ± 0.0019 |
| EGPLVRGSGVDV | 0.637 ± 0.043 |
| KDGGRGGLNWCV | 0.745 ± 0.095 |
| VGGVWGLGVRPR | 0.693 ± 0.029 |
| VGGAAVGAGGGV | 0.691 ± 0.054 |
| LHVPPSPFPTPP | 0.679 ± 0.049 |
| DRYGVYPIYGKF | 0.6855 ± 0.0054 |
| NSQAIKSTARQK | 0.707 ± 0.00054 |
| FQWVLDGYRCWD | 0.694 ± 0.098 |
| RGRAGPVVRELT | 0.646 ± 0.097 |
| LICVSTLAPSGQ | 0.676 ± 0.0078 |
| RGAKKMNHRGRS | 0.675 ± 0.052 |
| RSRGSRNGKWVW | 0.703 ± 0.02 |
| GAGRRRAQEQQT | 0.728 ± 0.015 |
| PNPPHPPPLPPA | 0.595 ± 0.033 |
| SCEERVGEKVMG | 0.6398 ± 0.0014 |
| GGRWNRNSGRGG | 0.693 ± 0.021 |
| LLFDIYSPTCPS | 0.628 ± 0.02 |
| GGWGRGERRSRE | 0.652 ± 0.045 |
| KVMSLACRLTSE | 0.843 ± 0.11 |
| SSQRPRCTFVLL | 0.684 ± 0.031 |

| Sequence | protein stability index |
| --- | --- |
| DSPPMTALITDF | 0.697 ± 0.019 |
| KKNKKNQKKKNK | 0.663 ± 0.0072 |
| RAIRWFGGRLVG | 0.7228 ± 0.0049 |
| LLANLRSSIDIQ | 0.709 ± 0.18 |
| GSVQHRRRDRCD | 0.676 ± 0.038 |
| PPPPGKTDRPSH | 0.695 ± 0.055 |
| GKLGSSPQLRYY | 0.704 ± 0.046 |
| AGVCVAVGGGGF | 0.676 ± 0.03 |
| DVVPYLGYYFFC | 0.578 ± 0.01 |
| GEGGGAGGLEWG | 0.687 ± 0.081 |
| VQTYVRARVDRL | 0.711 ± 0.024 |
| AGHGGWREAGGG | 0.685 ± 0.0076 |
| PHSASSVSYTLY | 0.701 ± 0.052 |
| IKCCIGCSSICG | 0.692 ± 0.042 |
| TPATRCLASDSR | 0.766 ± 0.11 |
| VHHTPFFSAPHV | 0.647 ± 0.09 |
| GQSGFGYVGSMK | 0.669 ± 0.049 |
| PSADRQSMRCRR | 0.631 ± 0.007 |
| GFGKVIMEIESI | 0.715 ± 0.043 |
| SHPPPPPHTPPS | 0.736 ± 0.02 |
| HDSMTQEPQNSA | 0.65 ± 0.065 |
| RMLHYCTYSLLL | 0.71 ± 0.079 |
| SPTPPPPSPLAP | 0.726 ± 0.059 |
| SAPLLLPPLSSP | 0.713 ± 0.023 |
| QTLKKRRNRSRG | 0.684 ± 0.041 |
| PPPLLPPLDAPS | 0.721 ± 0.083 |

| Sequence | protein stability index |
| --- | --- |
| VHCNLKLDASNF | 0.719 ± 0.058 |
| PTSACAPACPLL | 0.706 ± 0.032 |
| RREGWYTNRERG | 0.668 ± 0.013 |
| EGTTRDGERCRT | 0.696 ± 0.0056 |
| TSSPHGQSVTEP | 0.67 ± 0.05 |
| WGQSMFSLLVSI | 0.542 ± 0.035 |
| GCSGRRGRGGRG | 0.743 ± 0.046 |
| AKRLYLLTNRND | 0.634 ± 0.025 |
| RAVAGGPMPGSG | 0.732 ± 0.044 |
| AQPAPAPALADV | 0.667 ± 0.039 |
| VFGRSFFRLFRG | 0.6444 ± 0.0031 |
| ALKVMYMHTGKG | 0.62 ± 0.041 |
| PLPPLFLPPPPL | 0.708 ± 0.021 |
| AVRRRGGLSVGV | 0.654 ± 0.036 |
| EPNRIAKYYKKY | 0.686 ± 0.16 |
| KKKKKKDQKNKK | 0.734 ± 0.057 |
| HPTLPLLSHPTS | 0.798 ± 0.14 |
| AGGGRGGGSLRV | 0.669 ± 0.034 |
| LPFTLLPPVLSL | 0.596 ± 0.0062 |
| LHCLGFWRVMYG | 0.6538 ± 0.0011 |
| KKIEKENKKEKF | 0.611 ± 0.056 |
| QKKKPEKKAKRA | 0.721 ± 0.013 |
| GCLIAGGIDCPP | 0.66 ± 0.072 |
| HPSEPCKSQILL | 0.712 ± 0.027 |
| SLTYTSVAKAEV | 0.6149 ± 0.0034 |
| LEMTGGACGGGK | 0.675 ± 0.029 |

| Sequence | protein stability index |
| --- | --- |
| SVGGWIARTAIV | 0.661 ± 0.011 |
| CSRPPFLLFVSP | 0.702 ± 0.0076 |
| GWGPGGSERCGL | 0.711 ± 0.025 |
| PPPSPLPSPPPP | 0.5916 ± 0.0031 |
| LSSWTYTRFLHG | 0.749 ± 0.085 |
| SRRAPPPLYLPL | 0.699 ± 0.067 |
| GLVWRSRDDQLS | 0.764 ± 0.07 |
| KKEKGKKEKEKR | 0.668 ± 0.056 |
| RSGPRMNVNRTL | 0.646 ± 0.11 |
| SPETSSILLLSF | 0.612 ± 0.0035 |
| GGIQPEQYLNTL | 0.688 ± 0.019 |
| VGVAGGRGEEEL | 0.735 ± 0.019 |
| VGLGRPAAAWRR | 0.71 ± 0.00097 |
| KVEQLPAREAPC | 0.6556 ± 0.0039 |
| RMCLDYSFDSLL | 0.673 ± 0.0082 |
| KKQKKKKKRNRK | 0.654 ± 0.028 |
| CLPSQSAESLTF | 0.664 ± 0.02 |
| SFLLPTLVRLSH | 0.65 ± 0.022 |
| GCGKRVVVVSEL | 0.6386 ± 0.00072 |
| GAYSSFNGNSGD | 0.681 ± 0.064 |
| WPMYSVIKAQLK | 0.638 ± 0.015 |
| ISNPAVHNPAGG | 0.641 ± 0.017 |
| KKKKTEKKKTKQ | 0.656 ± 0.035 |
| PSSFIRFLLCCF | 0.644 ± 0.04 |
| CEKGLFLRSAYV | 0.65 ± 0.034 |
| RKGHKSNRSKNE | 0.705 ± 0.03 |

| Sequence | protein stability index |
| --- | --- |
| DQESTRLRWGTS | 0.66 ± 0.041 |
| FAFVCLASILGS | 0.5313 ± 0.0017 |
| RVWERGGGGDGC | 0.645 ± 0.049 |
| RLGWTTSEELWC | 0.657 ± 0.029 |
| KNVKETERKVTS | 0.565 ± 0.023 |
| SIIGRKVNGVSN | 0.711 ± 0.0089 |
| GGGVRWRVGRGG | 0.686 ± 0.0082 |
| WPRPSLPPLYAP | 0.685 ± 0.051 |
| PPPLPGSLLPLP | 0.72349 ± 0.00037 |
| GGRGGCGCGWVV | 0.682 ± 0.11 |
| IFSPHRPAVALV | 0.626 ± 0.073 |
| GKNKRERNRSSG | 0.771 ± 0.14 |
| PYLLGPIPGIPR | 0.666 ± 0.059 |
| PPPPASPPHAPP | 0.653 ± 0.07 |
| FRYSSLPRPLVF | 0.5893 ± 0.0029 |
| VVSWLGAGYSVR | 0.7 ± 0.071 |
| IPPFRLLCRLRL | 0.642 ± 0.022 |
| GMLLCAGGISKG | 0.584 ± 0.011 |
| GVGGENRRNGTV | 0.721 ± 0.11 |
| VGVWTGWDVDCH | 0.742 ± 0.076 |
| KESLKDRTKINI | 0.692 ± 0.033 |
| GIGGYACHFYVW | 0.673 ± 0.012 |
| GWLRGVCFCSWG | 0.73 ± 0.037 |
| PPPPPPLSPCPS | 0.704 ± 0.099 |
| FLSLFCFFLPFF | 0.646 ± 0.02 |
| ALCSGCFAFLGA | 0.676 ± 0.11 |

| Sequence | protein stability index |
| --- | --- |
| LPRPYRPASTCT | 0.656 ± 0.016 |
| EGAVGMSGSLGV | 0.668 ± 0.063 |
| RSKHNEDRVVYI | 0.709 ± 0.093 |
| GIYARPRPTQCP | 0.6718 ± 0.0037 |
| VCGSIRVIAWGD | 0.671 ± 0.057 |
| SCFEFGALSSPI | 0.753 ± 0.034 |
| ERWRVYERYARG | 0.692 ± 0.058 |
| GRYAGFESRFGA | 0.666 ± 0.018 |
| PPPPPTLPSCLS | 0.689 ± 0.063 |
| FSPASCPILPPL | 0.672 ± 0.014 |
| PPPGPPAVANRL | 0.701 ± 0.072 |
| YGVEWGAESNLY | 0.8019 ± 0.0068 |
| PTLTTQPNVPLN | 0.723 ± 0.038 |
| SFPLSPAFPSFL | 0.744 ± 0.025 |
| SHPPFPFAPPPR | 0.674 ± 0.031 |
| RATERIVNIKGK | 0.63277 ± 0.00036 |
| TLKPTHAPSPPP | 0.672 ± 0.021 |
| ALSPAFSPLFLP | 0.668 ± 0.036 |
| FAPPASPPARPP | 0.672 ± 0.016 |
| LILEKHEMIGRR | 0.681 ± 0.026 |
